Test results from the supplement of paper PMC10567573.

B1: LOXL2 (parent)
chain: FSPDGPSRFRKAYKPEQPLVRLRG

Variants of: B1
Experiment: protein stability index of a GFP-peptide fusion (GPS, HEK-293T) (PSI 1-6); higher = more stable
Details: c terminus: a fixed tail appended
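Note: lentivirally expressed fusions sorted by FACS into six bins by GFP to DsRed ratio, PSI derived from sequencing read proportions per bin multiplied by bin number.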

Protein stability index: each site, then its substitutions
L22: C 1.95 | Q 1.99 | N 2.36 | Y 1.75 | R 2.35 | P 2.05 | K 1.58 | G 1.9 | S 1.74 | I 2.42 | W 1.47 | D 1.93 | H 1.52 | M 2.04 | F 1.21 | V 1.54 | T 2.26 | E 1.68 | A 2.32
G24: I 1.44 | R 2.79 | N 1.91 | C 2.27 | V 2.73 | S 1.41 | D 1.8 | W 2.07 | T 1.38 | P 1.82 | Y 1.85 | A 2.71 | K 1.69 | E 1.91 | H 1.52 | F 1.73 | L 3.27 | Q 2.72 | M 2.72
K14: F 1.72 | M 2.19 | D 1.86 | N 2.35 | Y 2.61 | E 1.83 | S 1.48 | V 2.71 | R 1.54 | P 1.95 | L 2.46 | I 2.86 | G 2.32 | C 3.06 | H 2.06 | Q 1.76 | W 1.99 | T 3.59 | A 2.1
P15: W 1.5 | N 2.52 | C 3.13 | I 2.07 | H 1.7 | E 1.43 | G 2.48 | D 1.68 | M 2.79 | A 1.85 | V 2.28 | F 1.83 | T 1.41 | R 2.88 | S 3.74 | K 1.66 | L 3.53 | Y 1.6 | Q 1.7
Q17: F 2.74 | M 2.48 | S 2.25 | G 2.53 | E 4.03 | A 2.07 | V 2.21 | R 1.57 | P 2.81 | C 2.65 | K 1.54 | H 1.46 | N 1.4 | I 2.18 | D 2.08 | W 1.28 | T 1.5 | L 2.03
E16: L 2.74 | C 2.49 | T 2.09 | F 1.39 | S 2.72 | P 1.72 | D 2.65 | H 1.63 | N 1.64 | K 2.67 | G 1.54 | A 1.96 | Y 2.75 | I 3.39 | Q 2.92 | V 1.85
K11: H 1.64 | G 2.27 | R 2.72 | Y 2.6 | N 2.7 | V 2.66 | M 2.98 | D 1.28 | T 3.77 | Q 3.17 | E 3.54 | I 1.76 | P 2.41 | F 2.21 | L 2.31 | S 1.62
Y13: D 3.33 | Q 2.38 | T 1.69 | G 2.06 | K 2.77 | A 2.05 | F 1.91 | C 3.06 | S 2.44 | V 3.86 | I 1.54 | R 2.27 | W 3.28 | P 2.55 | M 1.54 | L 1.97 | E 2.15 | H 1.81 | N 2.15
P18: W 2.44 | L 1.89 | C 1.52 | R 1.86 | S 1.8 | Y 1.65 | T 1.42 | G 1.66 | M 2 | Q 2.17 | V 2.06 | E 1.82 | D 2.04 | F 1.11 | I 1.95 | H 2.03 | N 2.75 | A 2.07 | K 2.38
R21: Y 1.86 | H 2.25 | T 1.53 | A 1.65 | S 1.73 | V 1.65 | P 1.77 | C 2.37 | K 1.25 | M 1.59 | F 2.12 | N 1.61 | I 2.57 | L 1.26 | Q 1.8 | D 2 | G 1.67 | W 1.92 | E 1.99
R10: K 1.75 | N 1.94 | P 2.14 | Y 1.98 | L 1.97 | H 1.02 | G 1.78 | Q 1.99 | V 2.46 | M 2.1 | S 3.35 | F 4 | I 2.8
V20: R 2.51 | L 2 | Y 2.17 | E 1.74 | S 1.34 | I 2.62 | G 1.41 | T 1.92 | K 1.37 | N 2.42 | M 2.05 | C 1.85 | F 2.99 | Q 1.4 | D 2.34 | W 3.13 | A 2.26 | H 1.63 | P 1.92
A12: E 2.15 | P 2.13 | G 2.44 | D 2.03 | L 2.35 | T 2.59 | K 2 | F 1.57 | H 1.8 | W 4.25 | N 2.11 | R 1.42 | S 1.9 | I 3.12 | C 1.88 | Q 1.96 | V 2.3 | Y 1.91
R23: Q 2.13 | K 1.53 | C 2.39 | P 1.85 | S 1.82 | F 1.97 | N 1.29 | Y 1.2 | H 1.85 | M 2.33 | I 2.31 | A 1.89 | T 1.33 | D 2.78 | L 1.37 | G 1.96 | E 2.46 | V 1.98 | W 2.25
L19: E 2.34 | T 1.89 | H 1.45 | D 2.46 | W 2.04 | Q 2.56 | V 1.41 | A 2.01 | S 2.29 | G 2.08 | I 2.36 | N 1.22 | M 1.82 | K 1.65 | P 1.23 | Y 2.69
